{
  "source": "paper PMC2138200",
  "target": "p53, Gal4 fusion of the two-hybrid control plasmid pM53",
  "assay": "two-hybrid",
  "note": "Several values for one entry are separate records, joined by “and”; a condition that tells them apart may be missing. Identical values can stand only once.",
  "data": [
    {"substance": "SV-40 large T, VP16 fusion of the two-hybrid control plasmid pV-T (natural protein)", "values": [
      {"measurement": "CAT protein of the two-hybrid reporter", "value": "186 pg and 251 pg"}
    ]}
  ]
}
